US20250145711A1 (Janssen / Centocor, published 2025)

T1: Human CD79b long isoform, recombinant extracellular domain (CD9W8.001) (human, UniProt P40259 29-159)
T1 construct: extracellular domain; also called hu CD79b long
T1 sequence (looked up): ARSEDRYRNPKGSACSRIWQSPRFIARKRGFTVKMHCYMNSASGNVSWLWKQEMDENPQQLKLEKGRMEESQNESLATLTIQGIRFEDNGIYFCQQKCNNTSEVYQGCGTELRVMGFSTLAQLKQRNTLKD

T2: Human CD79b short isoform, recombinant extracellular domain (CD9W7.001) (human, UniProt P40259 29-159)
T2 chain: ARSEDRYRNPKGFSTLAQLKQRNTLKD

T3: Human CD79b, endogenous on diffuse large B-cell lymphoma cell lines (human, UniProt P40259 29-229)
T3 construct: On HBL-1, OCI-LY10 and Carnaval cells, which also carry CD20; also called Igβ
T3 sequence: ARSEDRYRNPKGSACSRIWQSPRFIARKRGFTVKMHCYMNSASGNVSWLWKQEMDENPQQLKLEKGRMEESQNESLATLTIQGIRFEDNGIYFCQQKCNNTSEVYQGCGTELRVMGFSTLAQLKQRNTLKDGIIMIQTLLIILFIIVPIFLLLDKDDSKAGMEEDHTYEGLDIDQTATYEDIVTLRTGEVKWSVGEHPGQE

B1: C923B74 (other)
heavy: QVQLQQSGPGLVKPSQTLSLTCAISGDSVSSNSATWNWIRQSPSRGLEWLGRTYYRSKWYNDYTVSVKSRITINPDTSKNQFSLQLNSVTPEDTAVYYCTRVDIAFDYWGQGTLVTVSSASTKGPSVFPLAPSSKSTSGGTAALGCLVKDYFPEPVTVSWNSGALTSGVHTFPAVLQSSGLYSLSSVVTVPSSSLGTQTYICNVNHKPSNTKVDKKVEPKSCDKTHTCPPCPAPEAAGGPSVFLFPPKPKDTLMISRTPEVTCVVVSVSHEDPEVKFNWYVDGVEVHNAKTKPREEQYNSTYRVVSVLTVLHQDWLNGKEYKCKVSNKALPAPIEKTISKAKGQPREPQVYTLPPSREEMTKNQVSLSCAVKGFYPSDIAVEWESNGQPENNYKTTPPVLDSDGSFFLVSKLTVDKSRWQQGNVFSCSVMHEALHNRFTQKSLSLSPGK
light: QTVVTQPPSVSEAPRQRVTISCSGSSSNIGNHGVNWYQQLPGKAPKLLIYNDDLLPSGVSDRFSGSTSGTSGSLAISGLQSEDEADYYCAAWDDSLNGVVFGGGTKLTVLGQPKAAPSVTLFPPSSEELQANKATLVCLISDFYPGAVTVAWKADSSPVKAGVETTTPSKQSNNKYAASSYLSLTPEQWKSHRSYSCQVTHEGSTVEKTVAPTECS
chain: EIVLTQSPATLSASPGERVTLSCSASSSVSYMNWYQQKPGQAPRRWIYDSSKLASGVPARFSGSGSGRDYTLTISSLEPEDFAVYYCQQWSRNPPTFGGGTKVEIKGGSEGKSSGSGSESKSTGGSQVQLVQSGAEVKKPGSSVKVSCKASGYTFTRSTMHWVKQAPGQGLEWIGYINPSSAYTNYNQKFQGRVTLTADKSTSTAYMELSSLRSEDTAVYYCASPQVHYDYAGFPYWGQGTLVTVSSEPKSSDKTHTCPPCPAPEAAGGPSVFLFPPKPKDTLMISRTPEVTCVVVSVSHEDPEVKFNWYVDGVEVHNAKTKPREEQYNSTYRVVSVLTVLHQDWLNGKEYKCKVSNKALPAPIEKTISKAKGQPREPQVYTLPPSREEMTKNQVSLWCLVKGFYPSDIAVEWESNGQPENNYKTTPPVLDSDGSFFLYSKLTVDKSRWQQGNVFSCSVMHEALHNHYTQKSLSLSPGKGGSEGKSSGSGSESKSTGGSAIQLTQSPSSLSASVGDRVTITCRASSSVSYIHWFQQKPGKAPKPLIYATSNLASGVPSRFSGSGSGTDFTLTISSLQPEDFATYYCQQWTSNPPTFGQGTKLEIKGGSEGKSSGSGSESKSTGGSQVQLVQSGAEVKKPGSSVKVSCKASGYTFTSYNMHWVRQAPGQGLEWMGAIYPGNGDTSYAQKFQGRVTITADKSTSTAYMELSSLRSEDTAVYYCARSTYYGGDWYFNVWGQGTLVTVSS
notes: Trispecific IgG1 antibody; HC1/LC form the CD79b Fab; HC2 is CD3 scFv-Fc-linker-CD20 scFv; also called CD79bxCD20xCD3 trispecific; CD9B330-N31S / CD3B2030-N106A-scFv-LH-C20B22
B2: C923B99 (other)
heavy: QVQLQESGPGLVKPSQTLSLTCTVSGVSISNYYWSWIRQPPGKGLEWIGRISPSGRTNYNPSLKSRVTMSLDASKNQFSLKLSSVTAADTAVYYCARGEYSGTYSYSFDIWGQGTMVTVSSASTKGPSVFPLAPSSKSTSGGTAALGCLVKDYFPEPVTVSWNSGALTSGVHTFPAVLQSSGLYSLSSVVTVPSSSLGTQTYICNVNHKPSNTKVDKKVEPKSCDKTHTCPPCPAPEAAGGPSVFLFPPKPKDTLMISRTPEVTCVVVSVSHEDPEVKFNWYVDGVEVHNAKTKPREEQYNSTYRVVSVLTVLHQDWLNGKEYKCKVSNKALPAPIEKTISKAKGQPREPQVYTLPPSREEMTKNQVSLSCAVKGFYPSDIAVEWESNGQPENNYKTTPPVLDSDGSFFLVSKLTVDKSRWQQGNVFSCSVMHEALHNRFTQKSLSLSPGK
light: DIQMTQSPSSLSASVGDRVTITCRSSQSLFDSDDGNTYLDWFQQKPGQSPKLLIQTLSYRASGVPSRFSGSGSGTDFTLTISSLQPEDFATYYCMQRMEFPLTFGGGTKVEIKRTVAAPSVFIFPPSDEQLKSGTASVVCLLNNFYPREAKVQWKVDNALQSGNSQESVTEQDSKDSTYSLSSTLTLSKADYEKHKVYACEVTHQGLSSPVTKSFNRGEC
chain: B1 chain
notes: Trispecific IgG1 antibody; HC1/LC form the CD79b Fab; HC2 is CD3 scFv-Fc-linker-CD20 scFv; also called CD79bxCD20xCD3 trispecific; CD9B643 / CD3B2030-N106A-scFv-LH-C20B22
B3: PS3B1391 (bispecific antibody, human IgG1, kappa, L234A L235A)
chain: EIVLTQSPATLSASPGERVTLSCSASSSVSYMNWYQQKPGQAPRRWIYDSSKLASGVPARFSGSGSGRDYTLTISSLEPEDFAVYYCQQWSRNPPTFGGGTKVEIKGGSEGKSSGSGSESKSTGGSQVQLVQSGAEVKKPGSSVKVSCKASGYTFTRSTMHWVKQAPGQGLEWIGYINPSSAYTNYNQKFQGRVTLTADKSTSTAYMELSSLRSEDTAVYYCASPQVHYDYAGFPYWGQGTLVTVSSEPKSSDKTHTCPPCPAPEAAGGPSVFLFPPKPKDTLMISRTPEVTCVVVSVSHEDPEVKFNWYVDGVEVHNAKTKPREEQYNSTYRVVSVLTVLHQDWLNGKEYKCKVSNKALPAPIEKTISKAKGQPREPQVYTLPPSREEMTKNQVSLWCLVKGFYPSDIAVEWESNGQPENNYKTTPPVLDSDGSFFLYSKLTVDKSRWQQGNVFSCSVMHEALHNHYTQKSLSLSPGK
heavy: EVQLVESGGGLVKPGGSLRLSCVASGFTFSFYSMNWVRQAPGKGLDWVSSISSSGNYIYYADSVKGRFTISRDNAKNSLHLHMNSLKAEDTAMYFCARSYSGSYDAFDFWGQGTMVTVSSASTKGPSVFPLAPSSKSTSGGTAALGCLVKDYFPEPVTVSWNSGALTSGVHTFPAVLQSSGLYSLSSVVTVPSSSLGTQTYICNVNHKPSNTKVDKKVEPKSCDKTHTCPPCPAPEAAGGPSVFLFPPKPKDTLMISRTPEVTCVVVSVSHEDPEVKFNWYVDGVEVHNAKTKPREEQYNSTYRVVSVLTVLHQDWLNGKEYKCKVSNKALPAPIEKTISKAKGQPREPQVYTLPPSREEMTKNQVSLSCAVKGFYPSDIAVEWESNGQPENNYKTTPPVLDSDGSFFLVSKLTVDKSRWQQGNVFSCSVMHEALHNRFTQKSLSLSPGK
light: EIVMTQSPGTLSLSPGERATLSCRASQSVSSSFLAWYQQKPGQAPRLLISGASSRATGIPDRFSVSGSGTDFTLTISRLEPEDFAVYYCQQYGVSPWTFGQGTKVEIKRTVAAPSVFIFPPSDEQLKSGTASVVCLLNNFYPREAKVQWKVDNALQSGNSQESVTEQDSKDSTYSLSSTLTLSKADYEKHKVYACEVTHQGLSSPVTKSFNRGEC
notes: HC 1: N-term scFv LH CD3B2030 N106A; HC 2: N-term Fab PSMHB49SC1133_011A11_1; LC1 is given as NA; also called PS3B1391.002

Legend:
[1] = molecular target: T1, Human CD79b long isoform, recombinant …; test: SPR Biacore 8K, antibody captured by anti-human Fc, CD79b in solution, 25 C, 1:1 Langmuir
Experimental: (§1) General Protocol for SPR Affinity Assessment: Affinity assessment of the bispecific and trispecific constructs against human CD79b were measured using recombinantly expressed extracellular domain of CD79b short and long isoforms (CD9W7.001 and CD9W8.001, respectively) by Surface Plasmon Resonance (SPR) using a Biacore 8 k SPR system (Biacore) at 25° C. in HBSP+ buffer. Cross-reactivity of the same antibody panel was also assessed against cyno and mouse antigens (CD9W1.001 and CD9W105.001, respectively). Briefly, a C1 sensor chip was immobilized with anti-human Fc (target immobilization levels of >400 RU) using vendor recommended amino coupling protocol. The test antibodies were captured through immobilized anti-Fc and was followed by the injection of different CD79b constructs at different concentration series (human CD79b short and long isoforms: 30 nM-0.37 nM at 3-fold dilutions; cyno and mouse CD79b: 3000 nM-37 nM at 3-fold dilutions). The association and dissociation phases were measured for 2 or 3 minutes and 30 minutes, respectively.
(§2) The raw binding sensorgrams were processed using Biacore Insight software (Biacore) by double-referencing and the processed sensorgrams were analyzed for cross-reactivity and fitted to a 1:1 Langmuir model to obtain on-rates, off-rates and affinities.

[2] = molecular target: T2, Human CD79b short isoform, recombinant …; test: as above
Experimental: as §1, §2

[3] = molecular target: T3, Human CD79b, endogenous on diffuse …; test: flow cytometry on HBL-1 cells (endogenous CD79b and CD20; the trispecific also has a CD20 arm)
[4] = molecular target: T3, Human CD79b, endogenous on diffuse …; test: flow cytometry on Carnaval cells (endogenous CD79b and CD20; the trispecific also has a CD20 arm)
[5] = molecular target: T3, Human CD79b, endogenous on diffuse …; test: flow cytometry on OCI-LY10 cells (endogenous CD79b and CD20; the trispecific also has a CD20 arm)
[6] = molecular target: T4, recombinant human PSMA (human, UniProt Q04609 44-750); test: SPR (Biacore 8K), antibody captured on anti-Fc, PSMA in solution; average of 2
T4 construct: also called hu PSMA; prostate-specific membrane antigen
Experimental: (§3) The binding affinity of anti-PSMA to the recombinant human or cynomolgus PSMA was determined by surface plasmon resonance (SPR) using a Biacore 8K instrument (ELN PSMA-00721). The antibodies were captured on a goat anti-Fc antibody-modified C1 chip and titrated with 3-fold serial dilutions of PSMA antigen spanning concentrations of 100 nM to 3.7 nM (human PSMA) or […] 22.2-600 nM for cyno PSMA. The association and dissociation were monitored for 3 and 60 minutes, respectively, using a flow rate of 50 μL/min. Raw binding data was referenced by subtracting the analyte binding signals from blanks and analyzed using a 1:1 Langmuir binding model by the Biacore Insight evaluation software to obtain the kinetics which were used to calculate the binding affinity. The anti-PSMA were captured using an anti-human Fc antibody and the antigens were injected in solution.

[7] = molecular target: T5, recombinant cynomolgus PSMA (cynomolgus, UniProt A0A2K5VNZ0 44-750); test: SPR (Biacore 8K), antibody captured on anti-Fc, PSMA in solution; average of 3
T5 construct: also called cy PSMA; cyno PSMA
Experimental: as §3

T4 sequence (Q04609 44-750 limits assumed): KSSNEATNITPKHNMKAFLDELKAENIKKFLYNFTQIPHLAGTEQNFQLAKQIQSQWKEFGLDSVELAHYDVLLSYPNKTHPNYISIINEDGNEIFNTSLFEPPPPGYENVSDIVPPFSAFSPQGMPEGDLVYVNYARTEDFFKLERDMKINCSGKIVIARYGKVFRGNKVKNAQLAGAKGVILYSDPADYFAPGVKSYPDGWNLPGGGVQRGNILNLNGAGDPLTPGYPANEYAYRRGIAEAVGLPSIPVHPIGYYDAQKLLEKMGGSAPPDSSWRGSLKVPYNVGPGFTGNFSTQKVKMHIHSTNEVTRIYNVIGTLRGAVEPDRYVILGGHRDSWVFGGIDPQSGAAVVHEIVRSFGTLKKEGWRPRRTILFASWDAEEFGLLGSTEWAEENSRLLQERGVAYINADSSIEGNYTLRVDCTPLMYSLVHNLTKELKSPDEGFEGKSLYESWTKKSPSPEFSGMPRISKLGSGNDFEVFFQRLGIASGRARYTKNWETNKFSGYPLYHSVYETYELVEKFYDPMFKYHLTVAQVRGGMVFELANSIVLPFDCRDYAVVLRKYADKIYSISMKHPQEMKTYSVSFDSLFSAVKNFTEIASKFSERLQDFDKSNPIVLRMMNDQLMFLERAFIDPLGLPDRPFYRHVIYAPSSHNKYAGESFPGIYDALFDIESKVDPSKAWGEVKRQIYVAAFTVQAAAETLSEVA

Binder | Kd [1] | Kd [2] | EC50 [3] | EC50 [4] | EC50 [5] | Kd [6] | koff [6] | kon [6] | Kd [7] | koff [7] | kon [7]
B1 | 0.023 nM | 0.39 nM | 52 nM | 23 nM | 66 nM | – | – | – | – | – | –
B2 | 0.04 nM | 0.27 nM | 8 nM | 6 nM | 2 nM | – | – | – | – | – | –
B3 | – | – | – | – | – | 0.1 nM | 4.8e-05 s⁻¹ | 480000 M⁻¹ s⁻¹ | 0.126 nM | 1.96e-05 s⁻¹ | 157000 M⁻¹ s⁻¹
